In PMC13225219 one finds fold bound against the wild-type Filamin fragment data, which are given here for one substance.

The target of this assay is GST-Drak (435-532) (Drosophila melanogaster) (UniProt Q0KHT7). The assay is described as follows: pull-down; GST-Drak on glutathione agarose; 100 µl of 0.2-10 µM Filamin fragment, 20 min on ice in 20 mM Tris-HCl pH 7.5, 100 mM NaCl, 1 mM DTT; washed with PBS; stain-free SDS-PAGE, Filamin to Drak band ratio.
Sequence of UniProt Q0KHT7 (Q0KHT7 435-532): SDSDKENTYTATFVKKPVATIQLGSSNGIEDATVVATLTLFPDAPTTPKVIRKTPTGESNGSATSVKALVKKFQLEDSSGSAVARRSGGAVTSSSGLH

With “Filamin-open (five-domain Drosophila Filamin fragment Cher15-19openMSR) (domain or fragment)”, the fold bound against the wild-type Filamin fragment came to 10 fold.
